Source: publication PMC12781765

What was measured:
[1] = molecular target: T1, Venus-tagged Gβ3γ9, P16520;O14610; experiment: BRET-based Gβ3γ9 displacement assay (competition with GαoG92-NLuc); details: chain shown with the change; n = 3; parent: est. 100; read off a plot
T1 chain 1: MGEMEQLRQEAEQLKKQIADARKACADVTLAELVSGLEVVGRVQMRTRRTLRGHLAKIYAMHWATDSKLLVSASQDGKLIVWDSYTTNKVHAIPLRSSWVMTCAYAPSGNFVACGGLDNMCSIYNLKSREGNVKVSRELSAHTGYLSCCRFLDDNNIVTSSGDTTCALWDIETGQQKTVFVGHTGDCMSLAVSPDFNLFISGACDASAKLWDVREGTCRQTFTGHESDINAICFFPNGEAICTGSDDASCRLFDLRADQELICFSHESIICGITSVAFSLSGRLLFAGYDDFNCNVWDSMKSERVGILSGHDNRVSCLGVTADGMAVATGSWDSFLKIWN
T1 chain 2: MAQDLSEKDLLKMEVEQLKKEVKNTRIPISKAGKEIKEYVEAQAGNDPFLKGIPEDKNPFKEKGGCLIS

GFP-Ric8A, Q9NPQ8 = molecular target: T2, GFP-Ric8A, Q9NPQ8; experiment: co-immunoprecipitation (GFP nanobody IP, Western blot quantification); details: chain shown with the change; HEK293T cells; n = 4; parent: est. 1.0; read off a plot
T2 chain: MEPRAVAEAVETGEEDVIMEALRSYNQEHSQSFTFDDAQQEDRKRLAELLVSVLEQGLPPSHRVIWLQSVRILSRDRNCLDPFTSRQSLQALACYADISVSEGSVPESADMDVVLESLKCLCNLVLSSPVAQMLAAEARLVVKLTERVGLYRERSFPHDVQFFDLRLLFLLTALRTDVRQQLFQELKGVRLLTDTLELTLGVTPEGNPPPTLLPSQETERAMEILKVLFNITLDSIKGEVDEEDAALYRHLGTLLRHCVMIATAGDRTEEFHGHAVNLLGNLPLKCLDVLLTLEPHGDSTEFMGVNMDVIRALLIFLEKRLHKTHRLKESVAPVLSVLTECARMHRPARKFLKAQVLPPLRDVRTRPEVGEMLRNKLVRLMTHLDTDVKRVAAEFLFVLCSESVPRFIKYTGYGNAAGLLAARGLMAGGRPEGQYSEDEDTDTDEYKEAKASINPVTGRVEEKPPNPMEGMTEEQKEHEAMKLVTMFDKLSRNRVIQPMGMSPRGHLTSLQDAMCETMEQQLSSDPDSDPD

[2] = molecular target: GFP-Gβ1γ3 (GFP-tagged Gβ1 and GFP-tagged Gγ3), P62873;P63215; experiment: as above; details: chain shown with the change; HEK293T cells; n = 4; parent: est. 1.0; read off a plot
Sequence of GFP-Gβ1γ3 (GFP-tagged Gβ1 and GFP-tagged Gγ3), P62873;P63215 (chain, as listed by the source, chain 1 of 2): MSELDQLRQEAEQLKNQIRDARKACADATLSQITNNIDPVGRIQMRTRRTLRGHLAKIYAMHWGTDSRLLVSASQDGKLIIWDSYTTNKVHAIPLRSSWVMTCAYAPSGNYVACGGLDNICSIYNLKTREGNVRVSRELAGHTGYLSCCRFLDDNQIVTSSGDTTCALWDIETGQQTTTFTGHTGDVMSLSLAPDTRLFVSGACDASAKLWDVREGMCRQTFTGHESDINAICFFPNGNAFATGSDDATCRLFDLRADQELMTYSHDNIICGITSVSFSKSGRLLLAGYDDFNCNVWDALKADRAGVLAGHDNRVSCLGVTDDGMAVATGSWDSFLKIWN
Sequence of GFP-Gβ1γ3 (GFP-tagged Gβ1 and GFP-tagged Gγ3), P62873;P63215 (chain, as listed by the source, chain 2 of 2): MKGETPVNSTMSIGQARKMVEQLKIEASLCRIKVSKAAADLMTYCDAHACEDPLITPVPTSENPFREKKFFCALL

percent of parent (% of Gαo wild-type) [1]: 30
ratio to parent (folds over Gαo wild-type) (GFP-Ric8A, Q9NPQ8): 6.2
ratio to parent (folds over Gαo wild-type) [2]: 0.29
B1: Gαo wild-type (non-tagged), P09471-1 L39_G40insV (protein)
chain: MGCTLSAEERAALERSKAIEKNLKEDGISAAKDVKLLLLVGAGESGKSTIVKQMKIIHEDGFSGEDVKQYKPVVYSNTIQSLAAIVRAMDTLGIEYGDKERKADAKMVCDVVSRMEDTEPFSAELLSAMMRLWGDSGIQECFNRSREYQLNDSAKYYLDSLDRIGAADYQPTEQDILRTRVKTTGIVETHFTFKNLHFRLFDVGGQRSERKKWIHCFEDVTAIIFCVALSGYDQVLHEDETTNRMHESLMLFDSICNNKFFIDTSIILFLNKKDLFGEKIKKSPLTICFPEYTGPNTYEDAAAYIQAQFESKNRSPNKEIYCHMTCATDTNNIQVVFDAVTDIIIANNLRGCGLY
